{
  "source": "the Human Domainome abundance scans (Beltran et al. 2025)",
  "note": "± gives the uncertainty stated by the source.",
  "data": [
    {"test": "abundance fitness (aPCA) (normalised: wild type 0, dead -1); higher = more abundant; growth selection in yeast, the domain comes from the species named", "settings": "Homo sapiens", "values": [
      {"substance": "Transcriptional activator Myb E151S, P10242", "abundance fitness": "-0.73 ± 0.088"},
      {"substance": "Transcriptional activator Myb E151T, P10242", "abundance fitness": "-0.731 ± 0.12"},
      {"substance": "Transcriptional activator Myb E151V, P10242", "abundance fitness": "-0.466 ± 0.074"},
      {"substance": "Transcriptional activator Myb E151W, P10242", "abundance fitness": "-0.835 ± 0.078"},
      {"substance": "Transcriptional activator Myb E151Y, P10242", "abundance fitness": "-1.12 ± 0.36"},
      {"substance": "Transcriptional activator Myb E168A, P10242", "abundance fitness": "-0.287 ± 0.093"},
      {"substance": "Transcriptional activator Myb E168C, P10242", "abundance fitness": "-0.464 ± 0.11"},
      {"substance": "Transcriptional activator Myb E168D, P10242", "abundance fitness": "-0.133 ± 0.09"},
      {"substance": "Transcriptional activator Myb E168F, P10242", "abundance fitness": "-0.574 ± 0.12"},
      {"substance": "Transcriptional activator Myb E168G, P10242", "abundance fitness": "-0.668 ± 0.07"},
      {"substance": "Transcriptional activator Myb E168H, P10242", "abundance fitness": "-0.548 ± 0.36"},
      {"substance": "Transcriptional activator Myb E168K, P10242", "abundance fitness": "-0.279 ± 0.11"},
      {"substance": "Transcriptional activator Myb E168L, P10242", "abundance fitness": "-0.419 ± 0.069"},
      {"substance": "Transcriptional activator Myb E168M, P10242", "abundance fitness": "-0.533 ± 0.16"},
      {"substance": "Transcriptional activator Myb E168N, P10242", "abundance fitness": "-0.492 ± 0.17"},
      {"substance": "Transcriptional activator Myb E168P, P10242", "abundance fitness": "-0.833 ± 0.13"},
      {"substance": "Transcriptional activator Myb E168Q, P10242", "abundance fitness": "-0.182 ± 0.13"},
      {"substance": "Transcriptional activator Myb E168R, P10242", "abundance fitness": "-0.541 ± 0.067"},
      {"substance": "Transcriptional activator Myb E168S, P10242", "abundance fitness": "-0.325 ± 0.084"},
      {"substance": "Transcriptional activator Myb E168T, P10242", "abundance fitness": "-0.573 ± 0.32"},
      {"substance": "Transcriptional activator Myb E168V, P10242", "abundance fitness": "-0.61 ± 0.077"},
      {"substance": "Transcriptional activator Myb E168W, P10242", "abundance fitness": "-0.79 ± 0.1"},
      {"substance": "Transcriptional activator Myb E168Y, P10242", "abundance fitness": "-0.657 ± 0.14"},
      {"substance": "Transcriptional activator Myb E194A, P10242", "abundance fitness": "-0.055 ± 0.086"},
      {"substance": "Transcriptional activator Myb E194C, P10242", "abundance fitness": "-0.226 ± 0.21"},
      {"substance": "Transcriptional activator Myb E194D, P10242", "abundance fitness": "-0.001 ± 0.16"},
      {"substance": "Transcriptional activator Myb E194F, P10242", "abundance fitness": "-0.168 ± 0.27"},
      {"substance": "Transcriptional activator Myb E194G, P10242", "abundance fitness": "-0.135 ± 0.068"},
      {"substance": "Transcriptional activator Myb E194H, P10242", "abundance fitness": "-0.403 ± 0.49"},
      {"substance": "Transcriptional activator Myb E194K, P10242", "abundance fitness": "-0.067 ± 0.13"},
      {"substance": "Transcriptional activator Myb E194L, P10242", "abundance fitness": "-0.192 ± 0.088"},
      {"substance": "Transcriptional activator Myb E194M, P10242", "abundance fitness": "-0.229 ± 0.26"},
      {"substance": "Transcriptional activator Myb E194N, P10242", "abundance fitness": "-0.316 ± 0.36"},
      {"substance": "Transcriptional activator Myb E194P, P10242", "abundance fitness": "0.022 ± 0.21"},
      {"substance": "Transcriptional activator Myb E194Q, P10242", "abundance fitness": "-0.125 ± 0.13"},
      {"substance": "Transcriptional activator Myb E194R, P10242", "abundance fitness": "-0.102 ± 0.089"},
      {"substance": "Transcriptional activator Myb E194S, P10242", "abundance fitness": "-0.161 ± 0.1"},
      {"substance": "Transcriptional activator Myb E194T, P10242", "abundance fitness": "-0.001 ± 0.12"},
      {"substance": "Transcriptional activator Myb E194V, P10242", "abundance fitness": "-0.037 ± 0.095"},
      {"substance": "Transcriptional activator Myb E194W, P10242", "abundance fitness": "-0.152 ± 0.13"},
      {"substance": "Transcriptional activator Myb E194Y, P10242", "abundance fitness": "-0.174 ± 0.24"},
      {"substance": "Transcriptional activator Myb E196A, P10242", "abundance fitness": "-0.069 ± 0.079"},
      {"substance": "Transcriptional activator Myb E196C, P10242", "abundance fitness": "-0.13 ± 0.089"},
      {"substance": "Transcriptional activator Myb E196D, P10242", "abundance fitness": "-0.056 ± 0.11"},
      {"substance": "Transcriptional activator Myb E196F, P10242", "abundance fitness": "-0.247 ± 0.15"},
      {"substance": "Transcriptional activator Myb E196G, P10242", "abundance fitness": "0.007 ± 0.057"},
      {"substance": "Transcriptional activator Myb E196H, P10242", "abundance fitness": "-0.196 ± 0.1"},
      {"substance": "Transcriptional activator Myb E196I, P10242", "abundance fitness": "-0.34 ± 0.12"},
      {"substance": "Transcriptional activator Myb E196K, P10242", "abundance fitness": "-0.064 ± 0.1"},
      {"substance": "Transcriptional activator Myb E196L, P10242", "abundance fitness": "-0.03 ± 0.072"},
      {"substance": "Transcriptional activator Myb E196M, P10242", "abundance fitness": "-0.084 ± 0.093"},
      {"substance": "Transcriptional activator Myb E196N, P10242", "abundance fitness": "-0.022 ± 0.089"},
      {"substance": "Transcriptional activator Myb E196P, P10242", "abundance fitness": "-0.114 ± 0.1"},
      {"substance": "Transcriptional activator Myb E196Q, P10242", "abundance fitness": "-0.032 ± 0.12"},
      {"substance": "Transcriptional activator Myb E196R, P10242", "abundance fitness": "-0.092 ± 0.046"},
      {"substance": "Transcriptional activator Myb E196S, P10242", "abundance fitness": "-0.052 ± 0.064"},
      {"substance": "Transcriptional activator Myb E196T, P10242", "abundance fitness": "-0.044 ± 0.1"},
      {"substance": "Transcriptional activator Myb E196V, P10242", "abundance fitness": "-0.121 ± 0.092"},
      {"substance": "Transcriptional activator Myb E196W, P10242", "abundance fitness": "-0.151 ± 0.067"},
      {"substance": "Transcriptional activator Myb E196Y, P10242", "abundance fitness": "-0.306 ± 0.17"},
      {"substance": "Transcriptional activator Myb E201A, P10242", "abundance fitness": "-0.094 ± 0.076"},
      {"substance": "Transcriptional activator Myb E201C, P10242", "abundance fitness": "-0.314 ± 0.11"},
      {"substance": "Transcriptional activator Myb E201F, P10242", "abundance fitness": "-0.521 ± 0.35"},
      {"substance": "Transcriptional activator Myb E201G, P10242", "abundance fitness": "-0.076 ± 0.054"},
      {"substance": "Transcriptional activator Myb E201H, P10242", "abundance fitness": "-0.034 ± 0.15"},
      {"substance": "Transcriptional activator Myb E201I, P10242", "abundance fitness": "-0.156 ± 0.2"},
      {"substance": "Transcriptional activator Myb E201K, P10242", "abundance fitness": "-0.272 ± 0.16"},
      {"substance": "Transcriptional activator Myb E201L, P10242", "abundance fitness": "-0.158 ± 0.097"},
      {"substance": "Transcriptional activator Myb E201M, P10242", "abundance fitness": "-0.078 ± 0.24"},
      {"substance": "Transcriptional activator Myb E201N, P10242", "abundance fitness": "0.095 ± 0.14"},
      {"substance": "Transcriptional activator Myb E201P, P10242", "abundance fitness": "-0.221 ± 0.13"},
      {"substance": "Transcriptional activator Myb E201Q, P10242", "abundance fitness": "-0.061 ± 0.14"},
      {"substance": "Transcriptional activator Myb E201R, P10242", "abundance fitness": "-0.12 ± 0.066"},
      {"substance": "Transcriptional activator Myb E201S, P10242", "abundance fitness": "-0.105 ± 0.1"},
      {"substance": "Transcriptional activator Myb E201V, P10242", "abundance fitness": "-0.183 ± 0.078"},
      {"substance": "Transcriptional activator Myb E201W, P10242", "abundance fitness": "-0.204 ± 0.08"},
      {"substance": "Transcriptional activator Myb E201Y, P10242", "abundance fitness": "-0.377 ± 0.14"},
      {"substance": "Transcriptional activator Myb G163A, P10242", "abundance fitness": "-0.329 ± 0.069"},
      {"substance": "Transcriptional activator Myb G163C, P10242", "abundance fitness": "-0.468 ± 0.093"},
      {"substance": "Transcriptional activator Myb G163D, P10242", "abundance fitness": "-0.356 ± 0.086"},
      {"substance": "Transcriptional activator Myb G163E, P10242", "abundance fitness": "-0.25 ± 0.088"},
      {"substance": "Transcriptional activator Myb G163F, P10242", "abundance fitness": "-0.89 ± 0.16"},
      {"substance": "Transcriptional activator Myb G163K, P10242", "abundance fitness": "-0.405 ± 0.11"},
      {"substance": "Transcriptional activator Myb G163L, P10242", "abundance fitness": "-0.581 ± 0.082"},
      {"substance": "Transcriptional activator Myb G163M, P10242", "abundance fitness": "-0.484 ± 0.12"},
      {"substance": "Transcriptional activator Myb G163P, P10242", "abundance fitness": "-0.19 ± 0.1"},
      {"substance": "Transcriptional activator Myb G163R, P10242", "abundance fitness": "-0.422 ± 0.059"},
      {"substance": "Transcriptional activator Myb G163S, P10242", "abundance fitness": "-0.406 ± 0.078"},
      {"substance": "Transcriptional activator Myb G163T, P10242", "abundance fitness": "-0.595 ± 0.11"},
      {"substance": "Transcriptional activator Myb G163V, P10242", "abundance fitness": "-0.537 ± 0.084"},
      {"substance": "Transcriptional activator Myb G163W, P10242", "abundance fitness": "-0.602 ± 0.084"},
      {"substance": "Transcriptional activator Myb G163Y, P10242", "abundance fitness": "-0.577 ± 0.46"},
      {"substance": "Transcriptional activator Myb G175A, P10242", "abundance fitness": "-0.085 ± 0.058"},
      {"substance": "Transcriptional activator Myb G175C, P10242", "abundance fitness": "-0.171 ± 0.1"},
      {"substance": "Transcriptional activator Myb G175D, P10242", "abundance fitness": "0.021 ± 0.079"},
      {"substance": "Transcriptional activator Myb G175E, P10242", "abundance fitness": "0.023 ± 0.079"},
      {"substance": "Transcriptional activator Myb G175F, P10242", "abundance fitness": "-0.308 ± 0.12"},
      {"substance": "Transcriptional activator Myb G175H, P10242", "abundance fitness": "0.101 ± 0.17"},
      {"substance": "Transcriptional activator Myb G175I, P10242", "abundance fitness": "-0.961 ± 0.35"},
      {"substance": "Transcriptional activator Myb G175K, P10242", "abundance fitness": "-0.036 ± 0.095"},
      {"substance": "Transcriptional activator Myb G175L, P10242", "abundance fitness": "-0.102 ± 0.077"},
      {"substance": "Transcriptional activator Myb G175M, P10242", "abundance fitness": "-0.283 ± 0.098"},
      {"substance": "Transcriptional activator Myb G175N, P10242", "abundance fitness": "-0.197 ± 0.18"},
      {"substance": "Transcriptional activator Myb G175P, P10242", "abundance fitness": "-0.594 ± 0.11"},
      {"substance": "Transcriptional activator Myb G175Q, P10242", "abundance fitness": "-0.315 ± 0.12"},
      {"substance": "Transcriptional activator Myb G175R, P10242", "abundance fitness": "-0.281 ± 0.053"},
      {"substance": "Transcriptional activator Myb G175S, P10242", "abundance fitness": "-0.13 ± 0.074"},
      {"substance": "Transcriptional activator Myb G175V, P10242", "abundance fitness": "-0.409 ± 0.066"}
    ]}
  ]
}
